Literature values as cited in paper PMC3078979.

Molecular target: Gamide (amidated gastrin) (Homo sapiens) (UniProt P01350)
Experiment: ultracentrifugation

Q: For apo-transferrin (from UniProt P02787), which Kd is on record?
A: 6.4 µM
